Seven molecules from paper PMC4599002, “The Potato Nucleotide-binding Leucine-rich Repeat (NLR) Immune Receptor Rx1 Is a Pathogen-dependent DNA-deforming Protein” (The Journal of Biological Chemistry, 2015) can be followed below.

Where a chain is given by its changes, count along the chain named.

The target of data set [1] is T1, Rx1(1–489)WT (Solanum tuberosum, UniProt Q9XGF5).
T1 construct: gene rx; CC-NB-ARC region, residues 1-489, LRR domain absent; pET32c, hexahistidine tag
T1 sequence (Q9XGF5 1-489): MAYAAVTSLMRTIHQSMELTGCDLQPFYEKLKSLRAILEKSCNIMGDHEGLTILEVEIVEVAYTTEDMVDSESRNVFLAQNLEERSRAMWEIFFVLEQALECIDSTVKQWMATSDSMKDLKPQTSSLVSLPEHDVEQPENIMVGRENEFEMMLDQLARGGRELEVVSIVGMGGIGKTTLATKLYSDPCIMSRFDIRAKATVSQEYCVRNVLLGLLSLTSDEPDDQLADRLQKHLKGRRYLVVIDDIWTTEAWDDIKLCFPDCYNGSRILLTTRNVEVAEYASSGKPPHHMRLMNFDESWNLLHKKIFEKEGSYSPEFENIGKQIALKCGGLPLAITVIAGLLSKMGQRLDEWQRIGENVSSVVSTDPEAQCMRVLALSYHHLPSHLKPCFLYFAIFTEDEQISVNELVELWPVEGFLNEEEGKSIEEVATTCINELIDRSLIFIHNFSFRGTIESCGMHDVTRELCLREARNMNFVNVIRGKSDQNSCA
The data set is described as follows: time-resolved FRET of DNA bending. The format is biochemical. The conditions noted are these: 20-bp end-labelled dsDNA (50 nM), 1.5 uM protein, 60 mM NaCl, room temperature; activator of DNA bending, P-loop dependent.

Data set [2] concerns the target T2, Rx1(1-489) WT (CC-NB-ARC) (potato (introgressed from Solanum …, UniProt Q9XGF5 1-489)).
T2 sequence: T1 sequence (Q9XGF5 1-489)
Nature of the data set: EMSA; apparent Kd in Table 1 (values not in material); text: submicromolar; EMSA: 0.15 nM 32P nucleic acid, 20 mM Tris-HCl pH 8.0, 60 mM NaCl, 2 mM EDTA, 1 mM DTT, 10% glycerol, 0.1 mg/ml BSA, 20 min on ice; FRET: 1.5 uM protein, 50 nM. The conditions noted are these: protein: recombinant; tags: His6 (pET32c); label: 32P 5' end; blunt. (In general: A gel shift assay detects complexes by their altered migration in electrophoresis.)

Data set [3] addresses T2, Rx1(1-489) WT (CC-NB-ARC). The data set is described as follows: EMSA; higher affinity than dsDNA or ssRNA; Kd in Table 1 not in material; EMSA: 0.15 nM 32P nucleic acid, 20 mM Tris-HCl pH 8.0, 60 mM NaCl, 2 mM EDTA, 1 mM DTT, 10% glycerol, 0.1 mg/ml BSA, 20 min on ice; FRET: 1.5 uM protein, 50 nM. The conditions noted are these: protein: recombinant; tags: His6 (pET32c); label: 32P 5' end; single strand.

For data set [4], the target named is T2, Rx1(1-489) WT (CC-NB-ARC). The data set is described as follows: EMSA; higher affinity than F12-ds/ss; EMSA: 0.15 nM 32P nucleic acid, 20 mM Tris-HCl pH 8.0, 60 mM NaCl, 2 mM EDTA, 1 mM DTT, 10% glycerol, 0.1 mg/ml BSA, 20 min on ice; FRET: 1.5 uM protein, 50 nM. The conditions noted are these: protein: recombinant; tags: His6 (pET32c); label: 32P 5' end of strand 1; fork 1:2, two single-stranded arms.

For data set [5], the target named is T2, Rx1(1-489) WT (CC-NB-ARC). Nature of the data set: P1 nuclease sensitivity; no nucleotide; local melting; EMSA: 0.15 nM 32P nucleic acid, 20 mM Tris-HCl pH 8.0, 60 mM NaCl, 2 mM EDTA, 1 mM DTT, 10% glycerol, 0.1 mg/ml BSA, 20 min on ice; FRET: 1.5 uM protein, 50 nM. The conditions noted are these: protein: recombinant; tags: His6 (pET32c); label: 32P 5' end of strand 1; blunt.

In data set [6] the target is T3, Orc1-1;Orc1-3 (Sulfolobus solfataricus;Sulfolobus …, UniProt Q980N4;Q97WM8 1-397;1-394, |).
T3 sequence 1: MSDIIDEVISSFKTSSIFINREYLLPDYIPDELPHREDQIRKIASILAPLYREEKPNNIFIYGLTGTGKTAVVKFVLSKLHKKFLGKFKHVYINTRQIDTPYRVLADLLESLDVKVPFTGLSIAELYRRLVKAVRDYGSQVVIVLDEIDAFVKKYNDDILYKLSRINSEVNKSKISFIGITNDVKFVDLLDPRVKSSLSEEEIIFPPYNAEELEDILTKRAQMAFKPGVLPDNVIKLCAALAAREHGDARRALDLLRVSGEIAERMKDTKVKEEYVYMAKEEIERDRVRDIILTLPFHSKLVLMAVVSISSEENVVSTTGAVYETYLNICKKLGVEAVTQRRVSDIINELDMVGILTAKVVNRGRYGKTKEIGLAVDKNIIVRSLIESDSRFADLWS
T3 sequence 2: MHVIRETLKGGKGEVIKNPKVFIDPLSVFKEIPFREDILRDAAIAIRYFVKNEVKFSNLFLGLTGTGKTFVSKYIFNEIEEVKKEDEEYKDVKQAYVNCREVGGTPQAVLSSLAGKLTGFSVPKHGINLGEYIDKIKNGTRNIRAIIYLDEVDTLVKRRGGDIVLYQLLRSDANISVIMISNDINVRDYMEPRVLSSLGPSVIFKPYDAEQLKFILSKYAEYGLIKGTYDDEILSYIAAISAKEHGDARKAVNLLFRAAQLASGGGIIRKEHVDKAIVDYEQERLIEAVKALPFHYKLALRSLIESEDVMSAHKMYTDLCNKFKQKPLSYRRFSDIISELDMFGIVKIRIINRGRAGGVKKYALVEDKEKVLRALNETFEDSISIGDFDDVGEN
Nature of the data set: P1 nuclease sensitivity; sensitivity indistinguishable from Rx1(1-489)WT; EMSA: 0.15 nM 32P nucleic acid, 20 mM Tris-HCl pH 8.0, 60 mM NaCl, 2 mM EDTA, 1 mM DTT, 10% glycerol, 0.1 mg/ml BSA, 20 min on ice; FRET: 1.5 uM protein, 50 nM. The conditions noted are these: protein: recombinant;recombinant; tags: ;; copies: 1;1; label: 32P 5' end of strand 1; blunt.

In data set [7] the target is T2, Rx1(1-489) WT (CC-NB-ARC). The data set is described as follows: time-resolved FRET (bending); no nucleotide; bend angle 42 degrees; EMSA: 0.15 nM 32P nucleic acid, 20 mM Tris-HCl pH 8.0, 60 mM NaCl, 2 mM EDTA, 1 mM DTT, 10% glycerol, 0.1 mg/ml BSA, 20 min on ice; FRET: 1.5 uM protein, 50 nM. The conditions noted are these: protein: recombinant; tags: His6 (pET32c); label: fluorescein donor and tetramethylrhodamine acceptor, end labels; blunt.

Data set [8] deals with T4, Rx1(1-489) K176R (potato (introgressed from Solanum …, UniProt Q9XGF5 1-489, K176R)).
T4 sequence: T1 sequence (Q9XGF5 1-489) with K176R
Nature of the data set: time-resolved FRET (bending); no nucleotide; bends similarly to WT; EMSA: 0.15 nM 32P nucleic acid, 20 mM Tris-HCl pH 8.0, 60 mM NaCl, 2 mM EDTA, 1 mM DTT, 10% glycerol, 0.1 mg/ml BSA, 20 min on ice; FRET: 1.5 uM protein, 50 nM. The conditions noted are these: protein: recombinant; tags: His6 (pET32c); label: fluorescein donor and tetramethylrhodamine acceptor, end labels; blunt.

Data set [9] concerns the target T2, Rx1(1-489) WT (CC-NB-ARC). Nature of the data set: EMSA; affinity similar to dsDNA; Kd in Table 1 not in material; EMSA: 0.15 nM 32P nucleic acid, 20 mM Tris-HCl pH 8.0, 60 mM NaCl, 2 mM EDTA, 1 mM DTT, 10% glycerol, 0.1 mg/ml BSA, 20 min on ice; FRET: 1.5 uM protein, 50 nM. The conditions noted are these: protein: recombinant; tags: His6 (pET32c); label: 32P 5' end; single strand.

`Nc1ncnc2c1ncn2[C@@H]1O[C@H](COP(=O)(O)OP(=O)(O)OP(=O)(O)O)[C@@H](O)[C@H]1O` [ATP]: in data set [1], the “time-resolved FRET of DNA bending” value was “Notably ATP, but not ADP, strongly increased the contribution of the 129-ps lifetime”.

B1: SS1/SS2 dsDNA (dsDNA)
DNA 1: TGGGTCAACGTGGGCAAAGATGTCCTAGCAATGTAATCGTCTATGACGTT
DNA 2: AACGTCATAGACGATTACATTGCTAGGACATCTTTGCCCACGTTGACCCA
For the molecule B1, the binding result in data set [2] was “binds”.
Regarding TGGGTCAACGTGGGCAAAGATGTCCTAGCAATGTAATCGTCTATGACGTT (ssDNA) [SS1 ssDNA], the binding result in data set [3] is reported as “binds”.

B2: F12-ss/ss (structured_DNA)
DNA 1: GACGCTGCCGAATTCTGGCTTGCTAGGACATCTTTGCCCACGTTGACCC
DNA 2: B1 DNA 1
On to B2, for which the binding result in data set [4] is listed as “binds”.

B3: C3/mORB dual site of oriC2 (dsDNA)
DNA 1: CTCAATACAATTGTCTCTGTGTAAATTTCCTACGTTTCATCTGAAAATCTAGCTATTAGAGCTTGGTTTA
DNA 2: TAAACCAAGCTCTAATAGCTAGATTTTCAGATGAAACGTAGGAAATTTACACAGAGACAATTGTATTGAG
Take B3: the binding result in data set [5] and in data set [6] was “binds” in each case.

B4: 20-bp FRET duplex (dsDNA)
DNA 1: TGGGTCAACGTGGGCAAAGA
DNA 2: TCTTTGCCCACGTTGACCCA
As to B4, the binding result in data set [7] and in [8] was “binds” throughout.
Consider UGGGUCAACGUGGGCAAAGAUGUCCUAGCAAUGUAAUCGUCUAUGACGUU (ssRNA) [SS1 ssRNA], for which the binding result in data set [9] is “binds”.
